This note sets out measurements from paper PMC7217734 (Journal of biomolecular structure & dynamics, 2019).

The experiment deals with peptide 91a (human). Kind of experiment: ITC.

EELARLEREYQDLLNVKMALDIEIATYRKLLEALESR [peptide 374a]: the Kd was found to be 3000 nM and the “stoichiometry N” value is roughly 1.
